Experiment [1] addresses T1, human PD-1 expressed on the surface of cells (NSO cells expressing human PD-1; MNFAT-luc2/PD-1 Jurkat cells) (human, UniProt Q15116 21-288).
T1 construct: also called cell surface PD-1; PDCD1 transfected NSO cells expressing PD-1
Put plainly: FACS saturation binding to NSO cells expressing PD-1; SM; SD 0.6227.

Experiment [2] has as its target T2, human LAG-3 expressed on NSO cells (human, UniProt P18627 29-525).
T2 sequence: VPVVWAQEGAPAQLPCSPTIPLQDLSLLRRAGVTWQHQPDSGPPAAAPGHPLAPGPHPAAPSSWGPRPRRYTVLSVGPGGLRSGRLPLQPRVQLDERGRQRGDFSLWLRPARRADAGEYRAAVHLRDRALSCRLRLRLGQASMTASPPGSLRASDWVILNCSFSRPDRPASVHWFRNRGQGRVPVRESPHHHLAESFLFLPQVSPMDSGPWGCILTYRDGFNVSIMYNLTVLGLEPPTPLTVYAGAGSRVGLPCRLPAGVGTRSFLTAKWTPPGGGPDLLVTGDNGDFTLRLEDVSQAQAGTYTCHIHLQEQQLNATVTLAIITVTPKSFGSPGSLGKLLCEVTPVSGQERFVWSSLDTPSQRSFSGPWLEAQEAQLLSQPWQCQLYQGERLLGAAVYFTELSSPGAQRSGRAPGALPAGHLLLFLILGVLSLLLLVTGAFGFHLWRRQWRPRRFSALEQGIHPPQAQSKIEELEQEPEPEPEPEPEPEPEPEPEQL
Put plainly: FACS saturation binding to NSO cells expressing LAG-3; SM; SD 0.3045.

Experiment [3] concerns the target T1, human PD-1 expressed on the surface of …. Put plainly: FACS: inhibition of sPD-L1 binding to PD-1 on NSO cells; SM; SD 0.3581.
Experiment [4] shares this target. Put plainly: FACS: inhibition of sPD-L2 binding to PD-1 on NSO cells; SM; SD 0.7891. A general note: Flow cytometry measures light scatter and fluorescence of single cells or particles in a stream.
Experiment [5] has as its target T3, biotinylated-soluble human LAG-3-Fc fusion protein (human, UniProt P18627 23-450, biotinylated (site not stated)).
T3 construct: whole entry named; also called shLAG-3; shLAG-3-Fc; not shown: Fc
T3 sequence: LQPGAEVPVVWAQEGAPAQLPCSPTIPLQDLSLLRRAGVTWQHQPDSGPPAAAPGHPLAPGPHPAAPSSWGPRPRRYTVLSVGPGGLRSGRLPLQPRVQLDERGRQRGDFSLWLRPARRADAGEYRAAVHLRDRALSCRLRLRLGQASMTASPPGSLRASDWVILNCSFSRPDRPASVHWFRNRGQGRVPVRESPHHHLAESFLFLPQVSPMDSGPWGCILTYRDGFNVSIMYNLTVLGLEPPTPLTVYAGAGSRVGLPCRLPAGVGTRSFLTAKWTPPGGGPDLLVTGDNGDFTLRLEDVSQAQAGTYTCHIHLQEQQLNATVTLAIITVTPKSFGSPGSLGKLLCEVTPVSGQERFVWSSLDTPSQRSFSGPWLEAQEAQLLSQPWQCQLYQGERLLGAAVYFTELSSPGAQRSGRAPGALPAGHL
In words: FACS: inhibition of shLAG-3-Fc binding to MHC II on Daudi cells (column head prints EC50); SM; SD 3.3552.

The target of experiment [6] is T1, human PD-1 expressed on the surface of …. Put plainly: FACS: inhibition of sPD-L1 binding to PD-1 on NSO cells; SM; SD 0.1302.
The target in experiment [7] is T3, biotinylated-soluble human LAG-3-Fc …. In words: FACS: inhibition of shLAG-3-Fc binding to MHC II on Daudi cells (column head prints EC50); SM; SD 0.1549.
Experiment [8] has as its target T1, human PD-1 expressed on the surface of …. Put plainly: FACS saturation binding to NSO cells expressing PD-1; SM; SD 0.4890.
The target in experiment [9] is T2, human LAG-3 expressed on NSO cells. In words: FACS saturation binding to NSO cells expressing LAG-3; SM; SD 0.0547.
The target in experiment [10] is T1, human PD-1 expressed on the surface of …. Put plainly: FACS: inhibition of sPD-L2 binding to PD-1 on NSO cells; SM; SD 0.3125.
Experiment [11] shares this target. Put plainly: FACS: inhibition of sPD-L2 binding to PD-1 on NSO cells; SM; SD 3.6847.
Experiment [12] shares this target. In words: FACS saturation binding to NSO cells expressing PD-1; single experiment.
The target is the same in experiment [13]. In words: FACS: inhibition of sPD-L1 binding to PD-1 on NSO cells; SM; SD 0.1018.
Experiment [14] addresses T2, human LAG-3 expressed on NSO cells. Put plainly: FACS saturation binding to NSO cells expressing LAG-3; single experiment.
Experiment [15] addresses T3, biotinylated-soluble human LAG-3-Fc …. Put plainly: FACS: inhibition of shLAG-3-Fc binding to MHC II on Daudi cells (column head prints EC50); SM; SD 4.9817.

T1 sequence (Q15116 21-288): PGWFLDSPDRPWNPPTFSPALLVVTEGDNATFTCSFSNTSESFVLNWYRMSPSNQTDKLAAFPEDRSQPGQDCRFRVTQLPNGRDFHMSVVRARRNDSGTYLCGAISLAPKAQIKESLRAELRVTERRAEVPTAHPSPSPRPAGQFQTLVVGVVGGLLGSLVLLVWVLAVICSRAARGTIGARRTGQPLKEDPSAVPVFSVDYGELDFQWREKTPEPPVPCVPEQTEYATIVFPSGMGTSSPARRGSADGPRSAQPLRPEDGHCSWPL

B1: DART G (bispecific antibody, human IgG1, kappa, L234A L235A)
chain 1: QVQLVQSGAEVKKPGASVKVSCKASGYTFTNYGMNWVRQAPGQGLEWMGWINTYTGESTYADDFEGRFVFSMDTSASTAYLQISSLKAEDTAVYYCARESLYDYYSMDYWGQGTTVTVSSASTKGPSVFPLAPSSKSTSGGTAALGCLVKDYFPEPVTVSWNSGALTSGVHTFPAVLQSSGLYSLSSVVTVPSSSLGTQTYICNVNHKPSNTKVDKRVEPKSCDKTHTCPPCPAPEAAGGPSVFLFPPKPKDTLYITREPEVTCVVVDVSHEDPEVKFNWYVDGVEVHNAKTKPREEQYNSTYRVVSVLTVLHQDWLNGKEYKCKVSNKALPAPIEKTISKAKGQPREPQVYTLPPSREEMTKNQVSLSCAVKGFYPSDIAVEWESNGQPENNYKTTPPVLDSDGSFFLVSKLTVDKSRWQQGNVFSCSVMHEALHAKYTQKSLSLSPG
chain 2: DIVMTQTPLSLSVTPGQPASISCKSSQSLLHSDAKTYLNWLLQKPGQPPERLIYLVSELDSGVPDRFSGSGSGTDFTLKISRVEAEDVGVYYCWQGTHFPYTFGGGTKVEIKRTVAAPSVFIFPPSDEQLKSGTASVVCLLNNFYPREAKVQWKVDNALQSGNSQESVTEQDSKDSTYSLSSTLTLSKADYEKHKVYACEVTHQGLSSPVTKSFNRGEC
chain 3: QVQLVQSGAEVKKPGASVKVSCKASGYTFTNYGMNWVRQAPGQGLEWMGWINTYTGESTYADDFEGRFVFSMDTSASTAYLQISSLKAEDTAVYYCARESLYDYYSMDYWGQGTTVTVSSASTKGPSVFPLAPSSKSTSGGTAALGCLVKDYFPEPVTVSWNSGALTSGVHTFPAVLQSSGLYSLSSVVTVPSSSLGTQTYICNVNHKPSNTKVDKRVEPKSCDKTHTCPPCPAPEAAGGPSVFLFPPKPKDTLYITREPEVTCVVVDVSHEDPEVKFNWYVDGVEVHNAKTKPREEQYNSTYRVVSVLTVLHQDWLNGKEYKCKVSNKALPAPIEKTISKAKGQPREPQVYTLPPSREEMTKNQVSLWCLVKGFYPSDIAVEWESNGQPENNYKTTPPVLDSDGSFFLYSKLTVDKSRWQQGNVFSCSVMHEALHNHYTQKSLSLSPGGGGSGGGSGGGEIVLTQSPATLSLSPGERATLSCRASESVDNYGMSFMNWFQQKPGQPPKLLIHAASNQGSGVPSRFSGSGSGTDFTLTISSLEPEDFAVYFCQQSKEVPYTFGGGTKVEIKGGGSGGGGQVQLVQSGAEVKKPGASVKVSCKASGYSFTSYWMNWVRQAPGQGLEWIGVIHPSDSETWLDQKFKDRVTITVDKSTSTAYMELSSLRSEDTAVYYCAREHYGTSPFAYWGQGTLVTVSSGGCGGGEVAALEKEVAALEKEVAALEKEVAALEK
chain 4: EIVLTQSPATLSLSPGERATLSCRASESVDNYGMSFMNWFQQKPGQPPKLLIHAASNQGSGVPSRFSGSGSGTDFTLTISSLEPEDFAVYFCQQSKEVPYTFGGGTKVEIKGGGSGGGGQVQLVQSGAEVKKPGASVKVSCKASGYSFTSYWMNWVRQAPGQGLEWIGVIHPSDSETWLDQKFKDRVTITVDKSTSTAYMELSSLRSEDTAVYYCAREHYGTSPFAYWGQGTLVTVSSGGCGGGKVAALKEKVAALKEKVAALKEKVAALKE
The term EC50 denotes the concentration at which the effect is half-maximal. In general, IC50 refers to the point on the concentration scale where inhibition reaches its midpoint. Read a high IC50 as weaker potency. Take B1: the EC50 worked out at 1150 nM in experiment [1] and 940 nM in [2]. In addition, the IC50 amounted to 1600 nM in experiment [3], 2550 nM in experiment [4] and 2060 nM in experiment [5].

B2: DART I (bispecific antibody, human IgG4 S228P)
chain 1: DIQMTQSPSSLSASVGDRVTITCRASQDVSSVVAWYQQKPGKAPKLLIYSASYRYTGVPSRFSGSGSGTDFTLTISSLQPEDFATYYCQQHYSTPWTFGGGTKLEIKGGGSGGGGQVQLVQSGAEVKKPGASVKVSCKASGYSFTSYWMNWVRQAPGQGLEWIGVIHPSDSETWLDQKFKDRVTITVDKSTSTAYMELSSLRSEDTAVYYCAREHYGTSPFAYWGQGTLVTVSSGGCGGGEVAACEKEVAALEKEVAALEKEVAALEKESKYGPPCPPCPAPEFLGGPSVFLFPPKPKDTLYITREPEVTCVVVDVSQEDPEVQFNWYVDGVEVHNAKTKPREEQFNSTYRVVSVLTVLHQDWLNGKEYKCKVSNKGLPSSIEKTISKAKGQPREPQVYTLPPSQEEMTKNQVSLTCLVKGFYPSDIAVEWESNGQPENNYKTTPPVLDSDGSFFLYSRLTVDKSRWQEGNVFSCSVMHEALHNHYTQKSLSLSLG
chain 2: EIVLTQSPATLSLSPGERATLSCRASESVDNYGMSFMNWFQQKPGQPPKLLIHAASNQGSGVPSRFSGSGSGTDFTLTISSLEPEDFAVYFCQQSKEVPYTFGGGTKVEIKGGGSGGGGQVQLVQSGAEVKKPGASVKVSCKASGYTFTDYNMDWVRQAPGQGLEWMGDINPDNGVTIYNQKFEGRVTMTTDTSTSTAYMELRSLRSDDTAVYYCAREADYFYFDYWGQGTTLTVSSGGCGGGKVAACKEKVAALKEKVAALKEKVAALKE
Turning to B2, the half-maximal inhibitory concentration (IC50) in experiment [6] came to 836 nM; in experiment [7], 486 nM; in experiment [10], 1290 nM. The EC50 in [8] is 1320 nM; in experiment [9] it was 532 nM.

B3: DART H (bispecific antibody)
chain 1: EIVLTQSPATLSLSPGERATLSCRASESVDNYGMSFMNWFQQKPGQPPKLLIHAASNQGSGVPSRFSGSGSGTDFTLTISSLEPEDFAVYFCQQSKEVPYTFGGGTKVEIKGGGSGGGGQVQLVQSGAEVKKPGASVKVSCKASGYTFTNYGMNWVRQAPGQGLEWMGWINTYTGESTYADDFEGRFVFSMDTSASTAYLQISSLKAEDTAVYYCARESLYDYYSMDYWGQGTTVTVSSGGCGGGEVAALEKEVAALEKEVAALEKEVAALEKGGGDKTHTCPPCPAPEAAGGPSVFLFPPKPKDTLMISRTPEVTCVVVDVSHEDPEVKFNWYVDGVEVHNAKTKPREEQYNSTYRVVSVLTVLHQDWLNGKEYKCKVSNKALPAPIEKTISKAKGQPREPQVYTLPPSREEMTKNQVSLWCLVKGFYPSDIAVEWESNGQPENNYKTTPPVLDSDGSFFLYSKLTVDKSRWQQGNVFSCSVMHEALHNHYTQKSLSLSPGK
chain 2: DIVMTQTPLSLSVTPGQPASISCKSSQSLLHSDAKTYLNWLLQKPGQPPERLIYLVSELDSGVPDRFSGSGSGTDFTLKISRVEAEDVGVYYCWQGTHFPYTFGGGTKVEIKGGGSGGGGQVQLVQSGAEVKKPGASVKVSCKASGYSFTSYWMNWVRQAPGQGLEWIGVIHPSDSETWLDQKFKDRVTITVDKSTSTAYMELSSLRSEDTAVYYCAREHYGTSPFAYWGQGTLVTVSSGGCGGGKVAALKEKVAALKEKVAALKEKVAALKE
chain 3: not shown
The term EC90 denotes the concentration at which the effect reaches the 90% level. Read a low EC90 as greater potency. In the case of B3, the figures for the IC50 in [11], in experiment [13] and in experiment [15] were 6210 nM, 3400 nM and 2900 nM, respectively. Moreover, the values for the EC50 in experiment [12] and in experiment [14] were 4530 nM and 2380 nM, respectively. For the same molecule, the 90% effect level in experiment [12] (EC90) was put at 22700 nM.

Source of the values: patent US12534531 (MacroGenics, dated 2026).
